Residue numbers refer to the chain shown, from its start. Numbers in names are those of the source.
B1: FIXa variant D203N/F205T/R338E (mature FIX numbering) (protein)
chain 1: YNSGKLEEFVQGNLERECMEEKCSFEEAREVFENTERTTEFWKQYVDGDQCESNPCLNGGSCKDDINSYECWCPFGFEGKNCELDVTCNIKNGRCEQFCKNSADNKVVCSCTEGYRLAENQKSCEPAVPFPCGRVSVSQTSKLTR
chain 2: VVGGEDAKPGQFPWQVVLNGKVNATCGGSIVNEKWIVTAAHCVETGVKITVVAGEHNIEETEHTEQKRNVIRIIPHHNYNAAINKYNHDIALLELDEPLVLNSYVTPICIADKEYTNIFLKFGSGYVSGWGRVFHKGRSALVLQYLRVPLVDRATCLESTKFTIYNNMFCAGFHEGGRDSCQGDSGGPHVTEVEGTSFLTGIISWGEECAMKGKYGIYTKVSRYVNWIKEKTKLT
B2: FIXa variant D203N/F205T/R338A (mature FIX numbering) (protein)
chain 1: B1 chain 1
chain 2: B1 chain 2 with E158A
B3: FIXa variant D203N/F205T/R318Y (mature FIX numbering) (protein)
chain 1: B1 chain 1
chain 2: B1 chain 2 with R138Y, E158R
B4: FIXa variant D203N/F205T/R338E/R403E (mature FIX numbering) (protein)
chain 1: B1 chain 1
chain 2: B1 chain 2 with R223E
B5: FIXa variant K228N/R338E/R403E (mature FIX numbering) (protein)
chain 1: B1 chain 1
chain 2: B1 chain 2 with N23D, T25F, K48N, R223E
B6: FIXa variant R318Y/R338E/E410N (mature FIX numbering) (protein)
chain 1: B1 chain 1
chain 2: B1 chain 2 with N23D, T25F, R138Y, E230N
B7: FIXa variant D104N/K106S/R318Y/R338E/E410N (mature FIX numbering) (protein)
chain 1: B1 chain 1 with D104N, K106S
chain 2: B1 chain 2 with N23D, T25F, R138Y, E230N
B8: FIXa variant Y155F/R318Y/R338E/E410N (mature FIX numbering) (protein)
chain 1: B1 chain 1
chain 2: B1 chain 2 with N23D, T25F, R138Y, E230N
B9: FIXa variant K228N/R318Y/E410N (mature FIX numbering) (protein)
chain 1: B1 chain 1
chain 2: B1 chain 2 with N23D, T25F, K48N, R138Y, E158R, E230N
B10: FIXa variant R318Y/R403E/E410N (mature FIX numbering) (protein)
chain 1: B1 chain 1
chain 2: B1 chain 2 with N23D, T25F, R138Y, E158R, R223E, E230N
B11: FIXa variant Y155F/R318Y/R403E/E410N (mature FIX numbering) (protein)
chain 1: B1 chain 1
chain 2: B1 chain 2 with N23D, T25F, R138Y, E158R, R223E, E230N
B12: FIXa variant R318Y/R338E/R403E/E410N (mature FIX numbering) (protein)
chain 1: B1 chain 1
chain 2: B1 chain 2 with N23D, T25F, R138Y, R223E, E230N
B13: FIXa variant A103N/N105S/R318Y/R338E/R403E/E410N (mature FIX numbering) (protein)
chain 1: B1 chain 1 with A103N, N105S
chain 2: B1 chain 2 with N23D, T25F, R138Y, R223E, E230N
B14: FIXa variant D104N/K106S/R318Y/R338E/R403E/E410N (mature FIX numbering) (protein)
chain 1: B1 chain 1 with D104N, K106S
chain 2: B1 chain 2 with N23D, T25F, R138Y, R223E, E230N
B15: FIXa variant Y155F/R318Y/R338E/R403E/E410N (mature FIX numbering) (protein)
chain 1: B1 chain 1
chain 2: B1 chain 2 with N23D, T25F, R138Y, R223E, E230N

The proteins below were run against Factor X (FX), P00742.
Chain of Factor X (FX), P00742 (P00742 whole entry, looked up): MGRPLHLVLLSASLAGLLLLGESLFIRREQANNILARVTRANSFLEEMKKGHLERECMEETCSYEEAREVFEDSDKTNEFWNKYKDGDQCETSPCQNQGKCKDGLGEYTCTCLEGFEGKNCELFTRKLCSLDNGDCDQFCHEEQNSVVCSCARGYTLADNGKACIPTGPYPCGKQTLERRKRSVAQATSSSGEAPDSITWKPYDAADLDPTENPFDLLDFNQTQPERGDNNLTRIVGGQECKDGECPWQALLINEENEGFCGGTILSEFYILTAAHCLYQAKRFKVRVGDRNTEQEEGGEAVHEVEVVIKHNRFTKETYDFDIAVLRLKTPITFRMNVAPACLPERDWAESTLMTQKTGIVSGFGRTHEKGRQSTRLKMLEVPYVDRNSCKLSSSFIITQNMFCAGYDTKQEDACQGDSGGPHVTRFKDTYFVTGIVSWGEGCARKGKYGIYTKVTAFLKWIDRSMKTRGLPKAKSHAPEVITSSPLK

In order of rising KM of FX activation by FIXa in the Xase complex (FVIIIa, PC/PS vesicles, Ca2+):
1. B6  0.0139 µM
2. B8  0.016 µM
3. B7  0.0189 µM
4. B1  0.0241 µM
5. B15  0.0304 µM
6. B2  0.0385 µM
7. B14  0.0385 µM
8. B9  0.042 µM
9. B12  0.0432 µM
10. B13  0.0447 µM
11. B3  0.0475 µM
12. B4  0.0511 µM
13. B5  0.0592 µM
14. B10  0.0942 µM
15. B11  0.111 µM
